Experimental data reported in patent EP4810515A1 (Shanghai Haiju Biological Technology Co., Ltd., dated 2026).

T1: human GDF15 recombinant protein (ACRO, GD5-H5149) (human, UniProt Q99988 197-308)
T1 sequence (looked up): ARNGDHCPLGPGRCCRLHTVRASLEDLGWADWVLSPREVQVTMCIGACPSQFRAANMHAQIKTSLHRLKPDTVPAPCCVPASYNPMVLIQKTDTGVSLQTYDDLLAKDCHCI

T2: cynomolgus monkey GDF15 recombinant protein (Kactus, GDF-CM215) (cynomolgus monkey, UniProt G7PWZ3 197-308, limits assumed)
T2 construct: also called cynoGDF-15.hFc; cynoGDF15; not shown: human Fc (hFc)
T2 sequence (looked up): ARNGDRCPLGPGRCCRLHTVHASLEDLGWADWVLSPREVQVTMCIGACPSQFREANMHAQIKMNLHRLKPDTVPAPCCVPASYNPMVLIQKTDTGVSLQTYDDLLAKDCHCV

T3: mouse GDF15 recombinant protein (Kactus, GDF-MM215) (mouse, UniProt Q9Z0J7 189-303, limits assumed)
T3 construct: also called mGDF-15.hFc; murine GDF15; not shown: human Fc (hFc)
T3 sequence (looked up): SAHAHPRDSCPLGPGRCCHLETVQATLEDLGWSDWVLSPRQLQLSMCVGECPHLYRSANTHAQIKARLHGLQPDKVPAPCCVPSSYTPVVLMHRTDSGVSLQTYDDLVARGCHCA


Legend:
[1] = target: T1, human GDF15 recombinant protein (ACRO, …); assay: cell-based or functional assay
[2] = target: T2, cynomolgus monkey GDF15 recombinant …; assay: ELISA, coated cynoGDF-15.hFc
[3] = target: T1, human GDF15 recombinant protein (ACRO, …); assay: ELISA, coated hGDF-15.His
[4] = target: T3, mouse GDF15 recombinant protein …; assay: ELISA, coated mGDF-15.hFc 2 ug/mL

IC50, reporter gene cell strain (mGFRAL) [1] | Binder | also measured
116 ng/mL | G2-CH8-LP1-hIgG1 (LALAGA, -K) (antibody, V domains shown) VH: QVTLKESGPGILQPSQTLSLTCSFSGFSLSTYGIGVGWIRQPSGKGLEWLAHIWWNDNKYYNTALKSRLTISKDTSNNQVFLKIASVDTADTATYYCARLAYDYVDSWGQGTTLTVSS VL: DIVMTQAAFSNPVTLGTSASISCRSSKSLLHSNAITYLYWYLQKPGQSPQLLIYQMSNLVSGVPDRFSSSGSGTDFTLRISRVEAEDVGVYYCAQNLELPPTFGAGTKLELKR | –
100 ng/mL | G2-CH8-LP2-hIgG1 (LALAGA, -K) (antibody, V domains shown) VH: QVTLKESGPGILQPSQTLSLTCSFSGFSLSTYGIGVGWIRQPSGKGLEWLAHIWWNDNKYYNTALKSRLTISKDTSNNQVFLKIASVDTADTATYYCARLAYDYVDSWGQGTTLTVSS VL: DIVMTQAAFSNPVTLGTSASISCRSSKSLLHSNQITYLYWYLQKPGQSPQLLIYQMSNLVSGVPDRFSSSGSGTDFTLRISRVEAEDVGVYYCAQNLELPPTFGAGTKLELKR | –
81 ng/mL | G2-CH8-LP3-hIgG1 (LALAGA, -K) (antibody, V domains shown) VH: QVTLKESGPGILQPSQTLSLTCSFSGFSLSTYGIGVGWIRQPSGKGLEWLAHIWWNDNKYYNTALKSRLTISKDTSNNQVFLKIASVDTADTATYYCARLAYDYVDSWGQGTTLTVSS VL: DIVMTQAAFSNPVTLGTSASISCRSSKSLLHSEGITYLYWYLQKPGQSPQLLIYQMSNLVSGVPDRFSSSGSGTDFTLRISRVEAEDVGVYYCAQNLELPPTFGAGTKLELKR | –
91 ng/mL | G2-CH2-LP2-hIgG1 (LALAGA, -K) (antibody, V domains shown) VH: QVTLKESGPGILQPSQTLSLTCSFSGFSLTISGMGVSWIRQPSGKGLEWLAHIYWDDDKRYNPSLKSRLTISKDTSSNQVFLEITSVDTADTATYYCVRAGWDFFDYWGQGTTLTVSS VL: DIVMTQSQKFMSTSVGDRVSVTCKASQNVGTNVAWYQQKPGQSPKGLIYSASYRYSGVPDRFTGSGSGTDFTLTISNVQSEDLAEYFCQQYESYPWTFGGGTKLEIKR | –
– | G2-CH17 (antibody, human IgG1, kappa, V domains shown, chimeric: murine variable regions on human IgG1 constant region mutant (LALAGA, -K)) VH: QVTLKESGPGILQPSQTLSLTCSFSGFSLNTSGMGVSWIRQPSGKGLEWLAHIYWDDDKRYNPSLKSRLTISKDTSRNQVFLKITGVDTADTAAYYCARTGWDFFDIWGQGTTLTVSS VL: DIVMTQSQKFMSTSVGDRVSVTCKASQNVGSNVAWYQQKPGQSPKALIYSASYRYSGVPDRFTGSGSGTDFTLTITNVQSEDLAEYFCQQYKSYPLTFGAGTKLELKR | EC50 [2]: 0.13 nM; EC50 [3]: 3.93 pM; binding result [4]: no binding
93 ng/mL | G2-CH2-LP3-hIgG1 (LALAGA, -K) (antibody, V domains shown) VH: QVTLKESGPGILQPSQTLSLTCSFSGFSLTISGMGVSWIRQPSGKGLEWLAHIYWDDDKRYNPSLKSRLTISKDTSSNQVFLEITSVDTADTATYYCVRAGWDFFDYWGQGTTLTVSS VL: DIVMTQSQKFMSTSVGDRVSVTCKASQNVGTNVAWYQQKPGQSPKGLIYSASYRYSGVPDRFTGSGSGTDFTLTISNVQSEDLAEYFCQQYNQYPWTFGGGTKLEIKR | –
180 ng/mL | G2-CH5-HP1-hIgG1 (LALAGA, -K) (antibody, V domains shown) VH: EVLLQQSGPELVKPGASVKIACKASGYTLTDYNLNWVKQSHGKSLEWIGDLNPYNAGIIYNQKFKGKATLTVDKSSSTAYMELRSLTSEDIAVYYCAREGRGGAWFDSWGQGTLVTVSA VL: DIQMTQSSSSFSVSLGDRVTITCKASEDIYHRLAWYQQKPGNAPRLLISGATSLETGIPSRFSGSGSGKDYALSITSLQTEDVGTYYCQQYWSPPFTFGSGTKLEIKR | –
142 ng/mL | G2-CH5-HP2-hIgG1 (LALAGA, -K) (antibody, V domains shown) VH: EVLLQQSGPELVKPGASVKIACKASGYTLTDYNLNWVKQSHGKSLEWIGDLNPYNQGIIYNQKFKGKATLTVDKSSSTAYMELRSLTSEDIAVYYCAREGRGGAWFDSWGQGTLVTVSA VL: DIQMTQSSSSFSVSLGDRVTITCKASEDIYHRLAWYQQKPGNAPRLLISGATSLETGIPSRFSGSGSGKDYALSITSLQTEDVGTYYCQQYWSPPFTFGSGTKLEIKR | –
